The record followed here is US20100273988A1 (Chugai, published 2010).

Assay [1] addresses HB-EGF protein (R&D Systems, Inc., 259-HE) (human, UniProt Q99075 63-148). As to the kind of experiment: cell-based or functional assay.
Assay [2] has as its target proHB-EGF mutated at the protease cleavage site, expressed on Ba/F3 cells (HB-EGF_Ba/F3) (human) (UniProt Q99075). Nature of the assay: flow cytometry, hybridoma culture supernatant on HB-EGF_Ba/F3 cells, FITC-anti-mouse IgG; EXP. 2 (no-mAb control 6.9).
Assay [3] has the same target. Nature of the assay: flow cytometry, hybridoma culture supernatant on HB-EGF_Ba/F3 cells, FITC-anti-mouse IgG; EXP. 1 (no-mAb control 19.1).

proHB-EGF mutated at the protease cleavage site, expressed on Ba/F3 cells (HB-EGF_Ba/F3) (human), sequence (Q99075 20-208 limits assumed, change not shown): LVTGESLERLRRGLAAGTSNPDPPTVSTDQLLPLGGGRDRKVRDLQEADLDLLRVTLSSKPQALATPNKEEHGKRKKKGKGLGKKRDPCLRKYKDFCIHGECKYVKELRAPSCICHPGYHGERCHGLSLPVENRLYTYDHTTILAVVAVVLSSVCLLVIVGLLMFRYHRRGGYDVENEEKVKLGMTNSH
HB-EGF protein (R&D Systems, Inc., 259-HE), sequence (Q99075 63-148 limits assumed): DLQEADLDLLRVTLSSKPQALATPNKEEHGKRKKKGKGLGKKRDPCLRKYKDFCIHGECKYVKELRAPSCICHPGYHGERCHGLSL

B1: HC-15 (antibody, V domains shown)
VH: EVQLQQSGPELVKPGASVKISCKASGYSFTGYYMHWVKQSPEKRLEWIGEINPRTGITTYNQKFKAKATLTVDKSSSTAYMQLKSLTSEDSAVYYCARVGSSGPFTYWGQGTLVTVSA
VL: DIVMTQSPSSLSVSAGDKVTMSCKSSQSLLNSRNQKNYLAWYQQKPWQPPKLLIYGASTRESGVPDRFTGSGSGTDFTLTISSVQAEDLAVYYCQNDYSYPFTFGTGTKLEIK
On to B1, for which the “EC50 (nM) of the growth-inhibiting effect on EGFR_Ba/F3 cells in the presence of HB-EGF (80 ng/mL)” value in assay [1] is 3.8 nM. Further, the FACS (GEO-mean) in assay [2] came to 234 GEO-mean; in assay [3], 594 GEO-mean.
